Results on 16 sequences are retold here after a protein production outcome set (Wang et al. 2014).
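Also: failed if final PepcDB status was selected cloned or expressed and not failed if soluble or beyond.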

The data set in a line: label from the status in PepcDB records.
Turning to “MSEYEVLLATKRRTPPDSSAGRSSQIWRRAFGHWLQGRNGSSSLSNQNEPRPCRVRRNAGSHGPPVCIPFALALPPRMDVRLPSRLAPPLGAVLLCTLLMGGPPPTVASPAVLFPSADTTSPRARRLLIQGTTEAQLGDYEEAISHFEAALEQVPEAPVLLLALADAHEAQGALSTALFYARRAQTQGSPRPSPYRRLAEMQRAAGDPAAALRTYQQLLDHVPNANDAHRARAAIQADLGRTKGAIQSYEIYLQRADSPPIDVYRRLLSLYRKTGDKDGVETTLRTLVERRPTVRSYQRRLGEYYADEGRPRKALALLAPLGRQFPNDEALRRQVQRLARQTGQSIASPTQRAQSDSTRSQSASPDAPLRRARSMYDAATASSPPDTAQLRAAAGVLRDVLHQSPDTEAALSLQAELYQAWGRPEEAGRAMERLLDLTPRAPGRWVRTAQTYQRAHLYARAAGVAEEGFLLFPGHMPLARTAAFARLRTGDPAKARRHFQDALSLLGDSTGAAAEAVLHAGLGLAKSRLGRPREADDALKNARALAPQHPQVVRLYARSLARQDDRLDQALDLAEQAVENAPDSPSAHRALGQVQFRRDELEAARRHLRIALDAGGPSATLLERLGDVEAALGNDTAAQTYWQRALDRNPDRSSLREKLAVPANS”, the protein production entry is “failed”. As for “MTMRVVTAPAEPPQGASHVAPSFTRMDTSVLGRWWWTVDRPMLGAVALLIAAGVFLILAAGPPAAGRIGAQTYHFVQRQFLFVPVAGVLVIAVSLLPVLWVRRIAVLLFALFMVLLLGTLFVSSDIKGASRWIAIGPFALQPSEFVKPTFAVVTAWMFASARTQDRFPGNLIAMLLMAVVGALLVAQPDFGMTMVVACVWGTQFFLAGLSLVWVVLLAAVGMIGAVIAYFALPHVQSRVDRFLDPASGDQYQIRQSMKAFMEGGLFGRGPGEGRVKEFLPDAHTDFIFAVAGEEFGLFLCLTIVALFAFLIIRSAIRLRREQNLFVLIAAGGLLTQLGLQALINMASSLSLIPTKGMTLPFISYGGSSLLSTAVAMGMVLALTRRRAHGERT”, the entry is “failed”. Take “MTVVVEFLGTGGAHSEDLGSSSARISLPNSQNMLIDFGPDTYFSVNTRKLQFDAIFITHAHLDHVGGLERLFFSVAFKKQRLIKLYVPVSLVTRLHQIFGMAGSQVAEGGKNFWDCFQLIPITDYFYFSGYRFNVFPVRHHFPGEAFGLALPGCFVYTGDTRPIPEQLVAHAGRGELIFHDATTSSNPAHSALDDLKREYALHDVLDRLVLYHFDSAVERELAETQGWKTVRLGVTYQFGCRHVCSGSMCSNAELSSLGTNKALHNERGTKLPRPSIKKDEFV”: the protein production entry is listed as “failed”. As for “MAKIKKYTTKTGKIRYEFQVYAGVDSLTGRQKTTRRRGFKTRKEASIVLSRLELEIEKRGLQEDERRFFRDVCAEWMEQYRLTVRESTLEKTQRIINIHVLPAFGDMVINNITPNVCQKVVNKWFLEAKSYKKWLNYASMIFDYALRAEYVGRNPCTLVTMPRVQEQAGEKLENFWTRDELNTFFDYVTPERDVEQFTMFRVLAYSGIRKGELLALTWKDINFEDNTLRVNKTLTQGLGGKLIVQPPKSRAGRRTIDLDDSTMRYLRQWKGVQRETFLGMGFNTNNVDQLVFASNRNHFRSMNTPTKWLNKAIKATGLKHISIHGFRHTHASLLYQSGVGLKETQQRLGHSRADSSVTLDVYTHTTEQQNVAALQRFENYVEAK”, the entry is “failed”; as for “MTGLSQSQASPMQIQPGNAAFNPWTDAALDTIRDVNQALTLYAEMRVVPAHHDAFLAAIDTVSAKLRVLPGFLSLALKQMSGDSTMVKNYPETYKGVLATAYLDGVAAGTQPYFYNLFVRFADGRAARAAGFEALFETHIHPLLHAMAPRGGDGPELLAYRAVLQSVVAGDRHAIYRGAEEIRSFLRRPVELPERETVTVENHVMVPEDKHAAWEPQVAILLQVAQDTFEPQDEPSGVGLPGARDNRYYRKALSTEILRNAHADGGLRAYIMHGVWESVWDHENSHLDPRFLAAAGPVGAAAVVGPVEPFYLTRRLVVAD”, “not failed”; as for “MRHMSGDHAALVLGAGAGRRLGRSKQLLMRDGEPLLRRAARIALLTAPRRCVVVLGADADTLSEVLQDLDIEILRHPDWSEGMGSSLAALRRHVQGDPALRRSLILGCDQPALDAPHLRSLLEEADRAVSGCATSGYSGVRGIPAVVTHTAWADVPLQADSGLRGLFASLDMQSLGCVSAPALALDIDTPADLATAQQRGWVDAELEHHHHHH”, “failed”. As for “MKISEVLVKVGDGVHTLLLDRPIVRDGRKFDAPLLWMVVLMTAFGLLMIYSASVYLASKEGGDQFFYLTRQAGFVVAGLIASGFLWFLCRMRTWRRLVPWIFALSGLLLVAVLIAGREINGATRWIPLGPLNFQPTELFKLAVILYLASLFTRREEVLRSMESLGWQSIWRGTANLIMSATNPQARRETLEMYGRFRAIILPIMLVAFGLVLIMVQPDFGSFVVITVITVGMLFLAGLPWKYFFVLVGSVLGGMVLMITAAPYRVQRVVAFLDPWKDPQGAGYQLTHSLMAIGRGEWFGMGLGASLSKRGFLPEAHTDFIFAIIAEEFGFFGMCVLIFCYGWLVVRAFSIGKQSRDLGLTFNAYIASGIGIWIGIQSFFNIGVNIGALPTKGLTLPLMSYGGSSVFFMLISMMLLLRIDYENRQKMRGYRVE”, the entry is “failed”; as for “MPRSTAASAPLTVRPFSLVPLMAAYMACTMSMMAFVSLIGPISRALHLETWHAGAAVTVSGVIWMLLARPWGQASDRFGRRRVLLLGTAGFTLAYWALCLFIDLSLQSLPSVAMAFLGLMLGRGLIGAFYAAIPVGGFALIADNVEPQHRARAMATLGAANAVGLVLGPAVAALLARYSLSLPFYAMAVLPLLAFLVLRYQLPRQELHLAQAPTRVRLGDPRLRRPMVVAFVAMLCVSVAQITVSFYALDRLHMSPADAAQTAGVALAMVGVALICAQLVVRKLEWPPLRMIRYGALLSALGYAGSMLVDSAWGLWLAFFVSAAGMGGVFPSFSALAANAVEASEQGATAGSIGAAQGLGVVIGPMAGSLIYAIEPRLPYLLAAVLLVLIAIWPAPQPKDL”, “failed”; as for “LANKQIESRIIQFDVEFPSDEVAKQLSIEKTVPVYHIIRLRKVEGEPYVIEETYMPSNVISELNEDVLHGSVYRHITETLKLTIAGSHRKIRADKSSALDREYLECAPDDPVLEVEQVAFLNTGEPFEYSFARHRYDKFVFSSVHIRK”, “failed”. As for “MRILLVLAHPLEDSFAAAVARTAREALEASGHVVDLFDLYAENFDPRLSKAERGGYFDQPYDTSAVADIVARLKAADGLILVFPQWWFNFPAILKGFFDRVFAPGVAFSHDAAGGRIVPQLTHIRLLYALTTTGSPWWLVRLYMGDPVRRLLKRGIAAFCSKGLNFRMLSLHDMDRASDVKRRAHLDRVRKLLSAIR”, the entry is “failed”. Turning to “MAGETPEQGEGRIISGRYRLLRTLGAGGMGRVWLAYDAELACEVAVKEIALPDLPIDASEPVQRIARARSEARNAARLRGHPHVATVHDVVVHEGLPWIVMEHVPDAIDLQAVVRRSGPLTPARTARIGVAVLDALTAGHRIGILHRDVKPANILLAPDASGDPYARVLLTDYGIALQPESREPRLTATAGILGTPGYLAPERARGEPPTPAADLFSLGATLYATVEGRGPFDRHGEYATLTALLGEEPTPPVRAGELGAVLHGLLIKDPVRRLAPEAVARGLEAVARAAPGEGFGPPPGWGSAPSVGQGFGPPPQGFGPPPDGFGPPSGTPSVSPPSAEGATTAPGAPGAPQVSAPGTPQTPGAPRTPHTPHTPQTPAGGPGTPPGSPSAYNPWRPTPPSGPYDPGNPYASSPSSPYAGTGAPAAYEGGPAYFPPRPSPRRKSAAALVALVVAAALVVTGGIWAALSLTGGPTGDGGGTTGQRAKKSPPVSGPQSTKPAGPVLPYGEQVGLTEPLQAGDCVRAVWSGAAFKSVPNLGVVDCADDWPDGQVVAVDTATDYADARDRGARRCAGQSQATADALPDAGVYAVAPTKEGFTAASGGTACLVLGRHAAIGGEVGRFRDTGTDLWVGQMSIGDCWIYKEEKDSYKAPLSDCAQPHTDQVIGAVSAPKNMDYKKGVDNGNKLCGNKFESSWAPGPARQVFGWVADKEDWNDGFDKVVCTVRRSDGAETSGKISAPGAV”, the protein production entry is listed as “failed”. “MITLARTLLLFACLLPSIHVKAEPSLQPHYKIATEADDVVTRVLFDAVSTEFGVSVEYINYASFDAILDAVANEDADFAANITYTDTRAERFSYSRPTNIEYTYLYGLSDSTLDDISRVGVPQNTIYSELIKQYHPELKQVPYKGHNEAVRLLQTGLVDGVVDAINQLKPMLLEGFDAKMLNDQISIKPVSIISKKGHHLEELDTFASFIHGEAVQKQLREQIALYQFELRRSALRDAIKLLPVDLKEPIRIKMESIFPYVVYNPDGTVQGMTADIVLQSCEILDLNCVIISEPNESWESMYRQFMKGEFDILAPLTVSRERHEFSYFPRPHYSPASVMVKRLGYKPNTYSHVSQLISERIGVVKDDFFDQMMTQLLPLKELERFNTQHDLIEALLKGEVDYIPMDTAMLNHFLRLSELVPIEQDTAIGEFYSSQLSIGLVANERGAMLAPYFSRAIAMLGVDKIVAQYDLRPDWRTALEYEVRLATQTQAVFLFVLVLAICVSLYLYRQSNTDNLTGLRNRRSLQVKYRQGVNKDLAILYLDINHFKQINDTYGHLAGDEVLQLLSLKIHRVWSGRSYRIGGDEFILLGYPTQIELSRAVQELSRLDVTDKLCAELKTVTISVGVSEKRKQHMSLEQALHLADEDMYVSKHSSRHYSGSSNYLVQS”: the protein production result is reported as “failed”.

For the sequence “MADVENQQDSSFPVKRKSDLFCQDQDNVTNKAQKLNPSLNSADSESKDGETNGSGQIENLNSSTEETIGAESSVLSEKAAEEVESGVIGDVGAEEEQEDEEDEEEDDEEEEEEEEVVDRKGKGISREDKGKGKMIEVEESDDEDDSDDDEDDEGFDEDDESDFSDDPLAEVDLDNILPSRTRRRSSQPGVFIPNEFSNRHVNDEDDESSDSDA”, the protein production entry is on record as “failed”. The entry for “MLDDVLALIREHDRFFITTHLGPDGDAVGSQLALGRFLEKMGKSVAMVNADEVDYNLDWMPGAGDIAVFDGSLGQHEALAEAEVAFVLDTNDEERIGKVGSLVRDATATTVLVDHHLEPEHWFDVFFVREEAAATGELVYEIIDGLAPDLIDEGIATALYTAIMTDTGSFRYSSVTPALHRSVADILERGGIGPAPIHETIYDRKSMPGLRLLGRMLNRIRLRYNGQLGYSVVTQRMVEDTGASWDDKQGFVNYVLSIEDVKTALLFSETDDGAKISFRSEADVRVDQWARHFGGGGHRNAAGAYVKRPTFEKTIETVIDAASDYIAFDARHAPDDDLSPEDQSYLETLLDDPSDSPLEHHHHHH” is “failed”. The entry for “MSFKNFKCVPKMIFGRGSFVQLDTVLEQERTDANDFVVFLVDDVHQHKPLAARVPNKAHDLVIYVNVDDEPTTVQVDELTAQVKAFNTKLPVSVVGLGGGSTMDLAKAVSLMLTNPGSSSEYQGWDLIKNPAVHHIGIPTVSGTGAEASRTAVLCGPVRKLGLNSDYTVFDQIIMDSELIAGVPTDQWFYTGMDCFIHCVESLQGTYLNEFAKAFAEKSMDLCREVYLDDHPEKDDKLMMASYMGGMSIAYSQVGACHAVSYGLGYVLGYHHGIGNCLAFDVLEEFYPEGVAEFRKMMEIHNITLPKNICKDLPDETIAKMVAVTKSMGPLWDNVYGKGWEEKVTDEMLTKLFRRI” is “not failed”; for “MSLTPWLSIVGISEEGWLALTPIAQQCILQADILVGSDRHFDLLPSLPGAEQWRWGSPFSATITQILERRGQSICILASGDPMCYGVGSLLAQRLPLTELQILPAPSAFSLACSRLGWALPEVETLSLCGRDPALLNALLYPGAKILALSADRSTPATIAEQLCQQGWGSSRLTVLEHLGGPKERKISEIAEHWSQPTIASLNTVAIECHARDRDLIVPPRLTGLPDAAYHHDGQLTKREVRAITLAALAPLPGQLLWDVGAGCGSIGIEWMRSDRRCRAIAIEQHPQRLQIITQNAIALGVPNLQVVAGSAPATLSGLPQPDAIFIGGGVTAPGVLDQCWQALPMGGRLVVNAVTLESEQVVLAGQQRWGGDLIRVAVQRAEPIGRFLGWKSLAPITQWTVKKTALEHHHHHH” it is “not failed”.
